US20240052042A1 (Novartis, published 2024)
Changes are numbered by the printed parent chain. Where two headings read alike, the source gives them in different places.

How the values were obtained:
hNPR1-ANP complex [1] = target: T1, hNPR1-ANP complex (human, UniProt P01160 124-151, limits assumed); assay: FRET ANP competition assay, IgG titrated on hNPR1 with Cy5-labeled ANP; negative values mean more ANP signal [Cont.), panel XX07]
T1 construct: hNPR1 antigen in the presence of ANP; also called hNPR1 + 100 nM ANP
T1 sequence: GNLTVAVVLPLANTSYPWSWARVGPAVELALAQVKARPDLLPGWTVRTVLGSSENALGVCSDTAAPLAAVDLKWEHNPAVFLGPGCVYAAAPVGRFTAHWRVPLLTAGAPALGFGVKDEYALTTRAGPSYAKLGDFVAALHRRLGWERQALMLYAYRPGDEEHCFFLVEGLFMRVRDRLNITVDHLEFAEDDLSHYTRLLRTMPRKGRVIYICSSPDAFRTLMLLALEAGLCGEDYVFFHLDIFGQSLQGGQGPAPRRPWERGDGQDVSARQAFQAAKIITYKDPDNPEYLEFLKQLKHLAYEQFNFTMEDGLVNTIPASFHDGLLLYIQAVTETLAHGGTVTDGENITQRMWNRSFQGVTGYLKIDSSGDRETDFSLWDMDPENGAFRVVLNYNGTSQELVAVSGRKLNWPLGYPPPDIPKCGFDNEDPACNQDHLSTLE
T1 sequence (peptide): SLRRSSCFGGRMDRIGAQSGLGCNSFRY
Description: The same 31 IgGs were tested for ANP competition using a Fluorescence Resonance Energy Transfer (FRET)-based assay in which the NPR1-specific antibodies competed with ANP for binding to NPR1. In this FRET based assay (see FIG. 3), Eu-labeled Streptavidin (for measurement of IgGs) or Eu-labeled anti-hFc antibody (for measurement of FabCys) was used as an energy donor, while Cy5-labeled ANP was used as an acceptor (for all measurements). The resulting fluorescent signal was decreased by ANP-competitive antibodies. The assay was performed as follows: antibodies were mixed with NPR1 and incubated for 5 minutes at room temperature. […] After a further 60-minute incubation, readout was performed using a TECAN Infinite M1000 Pro using an excitation wavelength of 317 nm and an emission wavelength of 665 nm. Percentage of ANP competition was calculated according to the following formulae: […]
Furthermore, the clones were tested via ELISA for binding to the following antigens: human NPR1, constitutively active human NPR1 mutant (W74R), rat NPR1, human NPR3 (counter target), each in the absence and presence of ANP, and BSA. The clones were also analyzed by flow cytometry for binding to human NPR1 expressing CHO K1 cells in absence and presence of ANP (100 nM) and to parental CHO K1 cells.

[2] = target: T2, human NPR1 on CHO-K1 cells in the presence of ANP (human, UniProt P01160 124-151); assay: flow cytometry (FL2-H) on hNPR1 CHO-K1 cells with saturating ANP, IgG titrated; control parental CHO-K1 [Cont.), panel XX07]
T2 construct: also called hNPR1 CHO K1 + 100 nM ANP
T2 sequence: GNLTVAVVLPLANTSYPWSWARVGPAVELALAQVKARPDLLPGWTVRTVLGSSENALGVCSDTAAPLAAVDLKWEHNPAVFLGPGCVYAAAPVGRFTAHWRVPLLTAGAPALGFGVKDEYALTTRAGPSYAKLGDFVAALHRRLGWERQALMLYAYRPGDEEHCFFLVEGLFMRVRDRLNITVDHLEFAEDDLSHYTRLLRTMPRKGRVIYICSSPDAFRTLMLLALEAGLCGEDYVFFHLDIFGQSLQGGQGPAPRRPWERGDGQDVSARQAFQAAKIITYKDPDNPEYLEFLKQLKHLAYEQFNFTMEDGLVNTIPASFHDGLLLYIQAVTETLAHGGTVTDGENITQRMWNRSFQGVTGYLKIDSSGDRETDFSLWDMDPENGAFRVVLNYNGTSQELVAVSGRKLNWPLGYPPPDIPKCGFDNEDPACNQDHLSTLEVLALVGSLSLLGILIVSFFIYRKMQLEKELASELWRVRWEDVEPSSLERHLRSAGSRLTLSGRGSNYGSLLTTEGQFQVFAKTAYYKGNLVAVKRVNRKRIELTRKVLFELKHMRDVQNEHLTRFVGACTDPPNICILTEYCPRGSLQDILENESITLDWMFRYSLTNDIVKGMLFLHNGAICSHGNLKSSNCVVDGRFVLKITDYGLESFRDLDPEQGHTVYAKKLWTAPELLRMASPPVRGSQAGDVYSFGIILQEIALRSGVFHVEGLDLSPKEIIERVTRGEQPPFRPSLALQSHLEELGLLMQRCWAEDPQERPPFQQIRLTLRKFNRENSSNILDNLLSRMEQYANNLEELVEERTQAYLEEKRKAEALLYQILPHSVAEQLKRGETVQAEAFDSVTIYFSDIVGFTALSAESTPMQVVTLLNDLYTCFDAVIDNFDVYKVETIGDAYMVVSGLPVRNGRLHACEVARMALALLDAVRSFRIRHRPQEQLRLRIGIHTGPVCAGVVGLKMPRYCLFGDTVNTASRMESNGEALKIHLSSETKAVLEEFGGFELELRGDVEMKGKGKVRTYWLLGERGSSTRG
T2 sequence (peptide): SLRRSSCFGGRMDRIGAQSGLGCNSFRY

hNPR1-ANP complex [3] = target: T1, hNPR1-ANP complex; assay: FRET ANP competition assay, IgG titrated on hNPR1 with Cy5-labeled ANP; negative values mean more ANP signal [Cont.), panel XX12]
Description: The same 31 IgGs were tested for ANP competition using a Fluorescence Resonance Energy Transfer (FRET)-based assay in which the NPR1-specific antibodies competed with ANP for binding to NPR1. In this FRET based assay (see FIG. 3), Eu-labeled Streptavidin (for measurement of IgGs) or Eu-labeled anti-hFc antibody (for measurement of FabCys) was used as an energy donor, while Cy5-labeled ANP was used as an acceptor (for all measurements). The resulting fluorescent signal was decreased by ANP-competitive antibodies. The assay was performed as follows: antibodies were mixed with NPR1 and incubated for 5 minutes at room temperature. After addition of the Eu-labeled donor and incubation for 30 minutes at room temperature, the Cy5-ANP solution was added. After a further 60-minute incubation, readout was performed using a TECAN Infinite M1000 Pro using an excitation wavelength of 317 nm and an emission wavelength of 665 nm. Percentage of ANP competition was calculated according to the following formulae: […]

[4] = target: T2, human NPR1 on CHO-K1 cells in the …; assay: flow cytometry (FL2-H) on hNPR1 CHO-K1 cells with saturating ANP, IgG titrated; control parental CHO-K1 [Cont.), panel XX12]
[5] = target: T3, human NPR1 on CHO-K1 cells (human, UniProt P16066 33-1061); assay: flow cytometry, hNPR1 CHO-K1 cells, IgG
T3 construct: also called hNPR1 CHO K1; human NPR1 expressing CHO-K1 cells
T3 sequence: T2 sequence

[6] = target: T2, human NPR1 on CHO-K1 cells in the …; assay: flow cytometry, hNPR1 CHO-K1 cells, IgG
[7] = target: T2, human NPR1 on CHO-K1 cells in the …; assay: flow cytometry (FL2-H) on hNPR1 CHO-K1 cells with saturating ANP, IgG titrated; control parental CHO-K1 [panel YY01]
hNPR1-ANP complex [8] = target: T1, hNPR1-ANP complex; assay: ELISA, 1 µM IgG; set-up: unit not given here
[9] = target: T4, human Natriuretic Peptide Receptor 1 (hNPR1) (human, UniProt P16066 33-473, limits assumed); assay: ELISA, 1 µM IgG; set-up: unit not given here
T4 construct: pannings used NPR1-hFc; also called NPR1-hFc
T4 sequence: T1 sequence

rNPR1-ANP complex [10] = target: T5, rNPR1-ANP complex (rat, UniProt P01160 124-151 (human entry), limits assumed); assay: ELISA, 1 µM IgG; set-up: unit not given here
T5 construct: rNPR1 antigen in the presence of ANP; also called rNPR1 + 100 nM ANP
T5 sequence: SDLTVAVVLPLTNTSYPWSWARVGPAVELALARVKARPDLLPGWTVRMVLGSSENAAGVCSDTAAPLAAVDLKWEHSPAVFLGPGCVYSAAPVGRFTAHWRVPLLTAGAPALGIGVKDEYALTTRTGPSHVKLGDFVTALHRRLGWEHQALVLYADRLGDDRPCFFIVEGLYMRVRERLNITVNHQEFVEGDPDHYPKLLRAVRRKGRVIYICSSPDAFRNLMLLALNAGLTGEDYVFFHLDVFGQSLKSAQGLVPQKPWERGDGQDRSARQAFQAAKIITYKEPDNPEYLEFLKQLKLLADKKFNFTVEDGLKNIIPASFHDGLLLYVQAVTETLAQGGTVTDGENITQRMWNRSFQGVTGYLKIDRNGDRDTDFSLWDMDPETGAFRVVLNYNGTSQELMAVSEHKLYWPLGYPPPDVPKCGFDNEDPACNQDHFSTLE
T5 sequence (peptide): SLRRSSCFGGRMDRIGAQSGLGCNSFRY

[11] = target: T3, human NPR1 on CHO-K1 cells; assay: cell-based or functional assay
[12] = target: T2, human NPR1 on CHO-K1 cells in the …; assay: flow cytometry (FL2-H) on hNPR1 CHO-K1 cells with saturating ANP, IgG titrated; control parental CHO-K1 [panel YY02]
hNPR1-ANP complex [13] = target: T1, hNPR1-ANP complex; assay: ELISA, IgG titrated on coated antigen with ANP (250 fold molar excess), fluorescence [Cont.]
rNPR1-ANP complex [14] = target: T5, rNPR1-ANP complex; assay: as above
[15] = target: T3, human NPR1 on CHO-K1 cells; assay: flow cytometry (FL2-H) on hNPR1 CHO-K1 cells without ANP, IgG titrated; control parental CHO-K1 [panel YY02]
[16] = target: T4, human Natriuretic Peptide Receptor 1 …; assay: ELISA, IgG titrated on coated antigen, fluorescence [Cont.]
[17] = target: T2, human NPR1 on CHO-K1 cells in the …; assay: flow cytometry (FL2-H) on hNPR1 CHO-K1 cells with saturating ANP, IgG titrated; control parental CHO-K1 [panel YY03]
hNPR1-ANP complex [18] = target: T1, hNPR1-ANP complex; assay: ELISA, IgG titrated on coated antigen with ANP (250 fold molar excess), fluorescence [Cont.]; remark: listed apart in the source
rNPR1-ANP complex [19] = target: T5, rNPR1-ANP complex; assay: as above; remark: listed apart in the source

B1: XX07 (IgG format) (antibody, V domains shown)
VH: QVQLLESGGGLVQPGGSLRLSCAASGFTFSSYWMNWVRQAPGKGLEWVSAISSDGSYTYYADSVKGRFTISRDNSKNTLYLQMNSLRAEDTAVYYCARDRYSMIYSYGAGAFDYWGQGTLVTVSS
VL: DIQMTQSPSSLSASVGDRVTITCRASQGISSYLAWYQQKPGKAPKLLIYTASTLQSGVPSRFSGSGSGTDFTLTISSLQPEDFATYYCQQIWTVPRTFGQGTKVEIK
- EC50 (read off the curve) (hNPR1-ANP complex [1]): ~300 pM
- EC50 (read off the curve) [2]: ~2000 pM

B2: XX12 (IgG format) (antibody, V domains shown)
VH: B1 VH
VL: B1 VL with T93M, V94A
- EC50 (read off the curve) (hNPR1-ANP complex [3]): ~400 pM
- EC50 (read off the curve) [4]: ~800 pM

B3: YY01 (IgG format) (antibody, V domains shown)
VH: EVQLVESGGGLVQPGGSLRLSCAASGFTFSSYWISWVRQAPGKGLEWVANIKQSGSETYYVESVKGRFTISRDNAKNSLYLQMNSLRAEDTAVYYCARSLRRRSTEHAGFDVWGQGTLVTVSS
VL: DIQMTQSPSSLSASVGDRVTITCRASQGISNYLAWYQQKPGKVPKLLIYAASTLQSGVPSRFSGSGSGTDFTLTISSLQPEDVATYYCQQADKFPYTFGQGTKVEIKR
notes: also called YY01_LALA
- flow cytometry S/BG at 1 µM IgG [5]: 35 S/BG
- flow cytometry S/BG at 1 µM IgG [6]: 21 S/BG
- EC50 (read off the curve) [7]: ~200 pM
- ELISA binding at 1 µM IgG (hNPR1-ANP complex [8]): 76
- ELISA binding at 1 µM IgG [9]: 54
- ELISA binding at 1 µM IgG (rNPR1-ANP complex [10]): 50
- cGMP conc [nM] at 1 µM IgG, +0.075 nM ANP [11]: 14 nM
- cGMP conc [nM] at 1 µM IgG, without ANP [11]: 5 nM

B4: YY02 (IgG format) (antibody, V domains shown)
VH: EVQLVESGGGLVKPGGSLRLSCAASGFTFSSYSMNWVRQAPGKGLEWVSSISSSSSYIYYADSVKGRFTISRDNAKNSLYLQMNSLRAEDTAVYYCARSGYRGVYGFDYWGQGTLVTVSS
VL: DIQMTQSPSSVSASVGDRVTITCRASQGISSWLAWYQQKPGKAPKLLIYAASSLQSGVPSRFSGSGSGTDFTLTISSLQPEDFATYYCQQYYHSPLTFGQGTKVEIKR
notes: IgG format; also called YY02_LALA
- EC50 (read off the curve) [12]: ~1000 pM
- EC50 (read off the curve) (hNPR1-ANP complex [13]): ~800 pM
- EC50 (read off the curve) (rNPR1-ANP complex [14]): ~300 pM
- EC50 (read off the curve) [15]: ~200000 pM

B5: YY03 (IgG format) (antibody, V domains shown)
VH: EVQLLESGGGLVQPGGSLRLSCAASGFTFSSYAISWVRQAPGKGLEWVSAISGSGGSTYYAESVKGRFTISRDNSKNTLYLQMNSLRAEDTAVYYCARESGYVYYLKFDYWGQGTLVTVSS
VL: B4 VL with V11L, G28S, W32Y, A34N, Y91H, Y92V, H93R, S94V, L96I
notes: IgG format; also called YY03_LALA
- binding result [16]: binds
- EC50 (read off the curve) [17]: ~2000 pM
- EC50 (read off the curve) (hNPR1-ANP complex [18]): ~1000 pM
- EC50 (read off the curve) (rNPR1-ANP complex [19]): ~200 pM
